Laboratory results as given in PMC4705653, “Mcm10 coordinates the timely assembly and activation of the replication fork helicase” (Nucleic Acids Research, 2015).

Target: T1, PKA-Mcm3 (radiolabeled) (budding yeast, UniProt P24279 1-971, 32P label on the PKA tag (protein kinase A with [gamma-32P]-ATP))
T1 construct: Mcm3, budding yeast; not shown: PKA tag, N-terminal, kept
Experiment: pull-down; 30 pmol GST-tagged protein on Glutathione Sepharose, varying concentrations of 32P-labelled PKA-tagged protein in solution; GST binding buffer (40 mM Tris–HCl pH 7.5, 100 mM NaCl, 0.1 mM EDTA, 10% glycerol, 0.1% Triton X-100, 1 mM DTT, 0.1 mg/ml BSA), 100 μl, 30°C, 10 min; SDS-PAGE and phosphorimaging; in some panels with 5 mM ATP or ATPγS, or with a third labelled protein (Mcm10, Sld3) added
Details: both partners purified

T1 sequence (P24279 whole entry): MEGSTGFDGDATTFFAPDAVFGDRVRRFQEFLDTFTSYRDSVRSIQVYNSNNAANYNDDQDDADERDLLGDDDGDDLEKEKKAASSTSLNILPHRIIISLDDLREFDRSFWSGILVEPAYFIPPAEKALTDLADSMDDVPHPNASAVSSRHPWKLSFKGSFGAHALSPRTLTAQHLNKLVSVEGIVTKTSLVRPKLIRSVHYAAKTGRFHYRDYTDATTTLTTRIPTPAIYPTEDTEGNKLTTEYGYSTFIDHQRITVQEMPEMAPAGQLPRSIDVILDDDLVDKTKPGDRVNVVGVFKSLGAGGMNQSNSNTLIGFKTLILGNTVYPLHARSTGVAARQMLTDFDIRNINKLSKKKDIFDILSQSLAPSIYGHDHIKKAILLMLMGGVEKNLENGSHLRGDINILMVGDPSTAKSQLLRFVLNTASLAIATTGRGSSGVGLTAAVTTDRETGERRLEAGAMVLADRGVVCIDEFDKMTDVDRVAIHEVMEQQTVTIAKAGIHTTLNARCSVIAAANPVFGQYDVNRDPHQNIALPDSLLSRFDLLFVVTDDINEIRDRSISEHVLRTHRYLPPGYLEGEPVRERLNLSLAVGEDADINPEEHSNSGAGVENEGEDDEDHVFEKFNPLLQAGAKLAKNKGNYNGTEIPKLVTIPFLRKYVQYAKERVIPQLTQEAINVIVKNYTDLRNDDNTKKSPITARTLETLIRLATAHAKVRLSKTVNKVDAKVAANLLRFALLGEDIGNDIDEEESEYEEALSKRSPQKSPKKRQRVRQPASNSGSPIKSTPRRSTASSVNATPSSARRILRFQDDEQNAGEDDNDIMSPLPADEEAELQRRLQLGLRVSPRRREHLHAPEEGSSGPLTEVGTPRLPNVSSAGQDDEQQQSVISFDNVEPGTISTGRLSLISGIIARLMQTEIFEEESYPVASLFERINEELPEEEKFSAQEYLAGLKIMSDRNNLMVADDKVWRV

B1: GST-Mcm10 (natural protein, budding yeast, UniProt P32354 1-571, looked up)
chain: MNDPREILAVDPYNNITSDEEDEQAIARELEFMERKRQALVERLKRKQEFKKPQDPNFEAIEVPQSPTKNRVKVGSHNATQQGTKFEGSNINEVRLSQLQQQPKPPASTTTYFMEKFQNAKKNEDKQIAKFESMMNARVHTFSTDEKKYVPIITNELESFSNLWVKKRYIPEDDLKRALHEIKILRLGKLFAKIRPPKFQEPEYANWATVGLISHKSDIKFTSSEKPVKFFMFTITDFQHTLDVYIFGKKGVERYYNLRLGDVIAILNPEVLPWRPSGRGNFIKSFNLRISHDFKCILEIGSSRDLGWCPIVNKKTHKKCGSPINISLHKCCDYHREVQFRGTSAKRIELNGGYALGAPTKVDSQPSLYKAKGENGFNIIKGTRKRLSEEEERLKKSSHNFTNSNSAKAFFDEKFQNPDMLANLDNKRRKIIETKKSTALSRELGKIMRRRESSGLEDKSVGERQKMKRTTESALQTGLIQRLGFDPTHGKISQVLKSSVSGSEPKNNLLGKKKTVINDLLHYKKEKVILAPSKNEWFKKRSHREEVWQKHFGSKETKETSDGSASDLEII
notes: Mcm10, budding yeast, full length PCR product in SpeI/XhoI sites of pET-41; source: cloned in pET-41 vector; not shown: GST, N-terminal, kept
- binding result: binds
